{"source": "patent EP4722254A1", "binders": {"B1": {"name": "anti-FGFR2/PD-1 bispecific antibody c (bispecific antibody, part only; not given: anti-PD-1 constant regions, part only)", "heavy, part": "EVKLVESGGGLVQPGGSLRLSCAASGFAFSSYDMSWVRQAPGKRLEWVATISGGGRYTYYPDTVKGRFTISRDNAKNSHYLQMNSLRAEDTAVYFCASPYGGYFDVWGQGTLVTVSSGGGGSGGGGSGGGGSQVQLVQSGAEVKKPGSSVKVSCKASGYTFTSYWMHWVRQAPGQGLEWMGAIYPGNSDTDYSGKFKGRVTITADESTSTAYMELSSLRSEDTAVYYCSKFDYWGQGTLVTVSSGGGGSGGGGSGGGGSGGGGSEIVLTQSPATLSLSPGERATLSCRASSSVNYMYWYQQKPGQAPRPWIYLTSNRATGVPARFSGSGSGTDYTLTISSLEPEDFAVYYCQQWSSNPYTFGQGTKLEIKRTV", "light, part": "EIVLTQSPATLSLSPGERATLSCRASQSISNFLHWYQQKPGQAPRLLIKYASQSISGIPARFSGSGSGTDFTLTISSLEPEDFAVYFCQQSNSWPHTFGQGTKVEIK"}}, "biological_target": "Recombinant Human-FGFR2-His protein (human) (UniProt P21802)", "sequence (P21802 other isoform, or with tags, fused parts or gaps limits assumed)": "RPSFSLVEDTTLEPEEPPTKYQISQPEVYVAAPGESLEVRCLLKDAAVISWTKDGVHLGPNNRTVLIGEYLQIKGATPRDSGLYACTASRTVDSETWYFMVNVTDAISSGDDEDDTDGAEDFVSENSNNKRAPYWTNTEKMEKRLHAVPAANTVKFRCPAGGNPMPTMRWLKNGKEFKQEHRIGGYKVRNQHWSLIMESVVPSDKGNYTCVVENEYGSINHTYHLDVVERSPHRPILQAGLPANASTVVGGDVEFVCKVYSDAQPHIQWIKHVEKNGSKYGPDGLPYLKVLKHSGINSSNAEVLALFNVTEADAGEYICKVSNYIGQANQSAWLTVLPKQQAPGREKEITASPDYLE", "test": "ELISA, Human-FGFR2-His coated, anti-human Fc-HRP detection"}
{"binder": "B1", "values": [{"measurement": "EC50", "result": 0.624, "unit": "nM"}]}
